Patent US20230357367A1
Where two headings read alike, the source gives them in different places.

Columns and labels:
Assay in all cases: cell-based or functional assay
[1] = target: SARS-CoV-1 Spike on pseudovirus (SARS-CoV-1) (UniProt P59594)
[2] = target: WIV1 Spike on pseudovirus (WIV1 (bat SARS-like coronavirus))
[3] = target: SARS-CoV-1 Spike on pseudovirus (SARS-CoV-1) (UniProt P59594); remark: listed apart in the source
[4] = target: WIV1 Spike on pseudovirus (WIV1 (bat SARS-like coronavirus)); remark: listed apart in the source
[5] = target: spike (WIV-1) (WIV1 (bat SARS-like coronavirus))
[6] = target: spike (SARS-CoV-1) (SARS-CoV-1) (UniProt P59594)

Substance | % neutralization at 4.5 µg/ml, pseudovirus [1] [%] | % neutralization at 4.5 µg/ml, pseudovirus [2] [%] | IC50, pseudovirus neutralization [3] [µg/mL] | IC50, pseudovirus neutralization [4] [µg/mL] | IC50, pseudovirus neutralization [1] [µg/mL] | IC50, pseudovirus neutralization [2] [µg/mL] | Emax, pseudovirus neutralization (% neutralization) [5] | Emax, pseudovirus neutralization (% neutralization) [6]
AZD1061 (antibody) | 1.2 | 0.8 | – | – | – | – | – | –
AZD8895 (antibody) | 1.7 | 0.6 | – | – | – | – | – | –
Sotrovimab VH/VL (human IgG1 molecule expressing the same variable regions of Sotrovimab) (antibody) | 101 | 99.4 | 0.0089 | 0.0274 | 0.014 | 0.032 | – | –
bebtelovimab (antibody) | – | – | – | – | – | – | 6.99 | 8
